B1: Site 2 probe, mouse Ccl22 promoter (dsDNA)
DNA 1: GTGGGACTTCTTCTTTCAG
DNA 2: CTGAAAGAAGAAGTCCCAC
B2: Site 1&2 probe, mouse Ccl22 promoter (dsDNA)
DNA 1: CGCTGGGGGAAGTGGGACTTCTTCTTTCAG
DNA 2: CTGAAAGAAGAAGTCCCACTTCCCCCAGCG
B3: Site 1 probe, mouse Ccl22 promoter (dsDNA)
DNA 1: GGCTGGGGGAAGTGGGAC
DNA 2: GTCCCACTTCCCCCAGCC

Each binder was assayed against PU.1 (UniProt P17433 1-272) (assay: EMSA; anti-PU.1 Ab control; EMSA in 5% acrylamide gels with fluorescence detection; buffer, salt, pH and temperature not in the material). Settings: protein: ivt; label: FLO (fluorescent).

Binding result, binds:
B1
B2
B3

Source: PMC6361964, “A transcription factor PU.1 is critical for Ccl22 gene expression in dendritic cells and macrophages”
